Target: clotting factor VIII (human) (UniProt P00451)
Assay: cell-based or functional assay

Chain of UniProt P00451 (P00451 20-2351): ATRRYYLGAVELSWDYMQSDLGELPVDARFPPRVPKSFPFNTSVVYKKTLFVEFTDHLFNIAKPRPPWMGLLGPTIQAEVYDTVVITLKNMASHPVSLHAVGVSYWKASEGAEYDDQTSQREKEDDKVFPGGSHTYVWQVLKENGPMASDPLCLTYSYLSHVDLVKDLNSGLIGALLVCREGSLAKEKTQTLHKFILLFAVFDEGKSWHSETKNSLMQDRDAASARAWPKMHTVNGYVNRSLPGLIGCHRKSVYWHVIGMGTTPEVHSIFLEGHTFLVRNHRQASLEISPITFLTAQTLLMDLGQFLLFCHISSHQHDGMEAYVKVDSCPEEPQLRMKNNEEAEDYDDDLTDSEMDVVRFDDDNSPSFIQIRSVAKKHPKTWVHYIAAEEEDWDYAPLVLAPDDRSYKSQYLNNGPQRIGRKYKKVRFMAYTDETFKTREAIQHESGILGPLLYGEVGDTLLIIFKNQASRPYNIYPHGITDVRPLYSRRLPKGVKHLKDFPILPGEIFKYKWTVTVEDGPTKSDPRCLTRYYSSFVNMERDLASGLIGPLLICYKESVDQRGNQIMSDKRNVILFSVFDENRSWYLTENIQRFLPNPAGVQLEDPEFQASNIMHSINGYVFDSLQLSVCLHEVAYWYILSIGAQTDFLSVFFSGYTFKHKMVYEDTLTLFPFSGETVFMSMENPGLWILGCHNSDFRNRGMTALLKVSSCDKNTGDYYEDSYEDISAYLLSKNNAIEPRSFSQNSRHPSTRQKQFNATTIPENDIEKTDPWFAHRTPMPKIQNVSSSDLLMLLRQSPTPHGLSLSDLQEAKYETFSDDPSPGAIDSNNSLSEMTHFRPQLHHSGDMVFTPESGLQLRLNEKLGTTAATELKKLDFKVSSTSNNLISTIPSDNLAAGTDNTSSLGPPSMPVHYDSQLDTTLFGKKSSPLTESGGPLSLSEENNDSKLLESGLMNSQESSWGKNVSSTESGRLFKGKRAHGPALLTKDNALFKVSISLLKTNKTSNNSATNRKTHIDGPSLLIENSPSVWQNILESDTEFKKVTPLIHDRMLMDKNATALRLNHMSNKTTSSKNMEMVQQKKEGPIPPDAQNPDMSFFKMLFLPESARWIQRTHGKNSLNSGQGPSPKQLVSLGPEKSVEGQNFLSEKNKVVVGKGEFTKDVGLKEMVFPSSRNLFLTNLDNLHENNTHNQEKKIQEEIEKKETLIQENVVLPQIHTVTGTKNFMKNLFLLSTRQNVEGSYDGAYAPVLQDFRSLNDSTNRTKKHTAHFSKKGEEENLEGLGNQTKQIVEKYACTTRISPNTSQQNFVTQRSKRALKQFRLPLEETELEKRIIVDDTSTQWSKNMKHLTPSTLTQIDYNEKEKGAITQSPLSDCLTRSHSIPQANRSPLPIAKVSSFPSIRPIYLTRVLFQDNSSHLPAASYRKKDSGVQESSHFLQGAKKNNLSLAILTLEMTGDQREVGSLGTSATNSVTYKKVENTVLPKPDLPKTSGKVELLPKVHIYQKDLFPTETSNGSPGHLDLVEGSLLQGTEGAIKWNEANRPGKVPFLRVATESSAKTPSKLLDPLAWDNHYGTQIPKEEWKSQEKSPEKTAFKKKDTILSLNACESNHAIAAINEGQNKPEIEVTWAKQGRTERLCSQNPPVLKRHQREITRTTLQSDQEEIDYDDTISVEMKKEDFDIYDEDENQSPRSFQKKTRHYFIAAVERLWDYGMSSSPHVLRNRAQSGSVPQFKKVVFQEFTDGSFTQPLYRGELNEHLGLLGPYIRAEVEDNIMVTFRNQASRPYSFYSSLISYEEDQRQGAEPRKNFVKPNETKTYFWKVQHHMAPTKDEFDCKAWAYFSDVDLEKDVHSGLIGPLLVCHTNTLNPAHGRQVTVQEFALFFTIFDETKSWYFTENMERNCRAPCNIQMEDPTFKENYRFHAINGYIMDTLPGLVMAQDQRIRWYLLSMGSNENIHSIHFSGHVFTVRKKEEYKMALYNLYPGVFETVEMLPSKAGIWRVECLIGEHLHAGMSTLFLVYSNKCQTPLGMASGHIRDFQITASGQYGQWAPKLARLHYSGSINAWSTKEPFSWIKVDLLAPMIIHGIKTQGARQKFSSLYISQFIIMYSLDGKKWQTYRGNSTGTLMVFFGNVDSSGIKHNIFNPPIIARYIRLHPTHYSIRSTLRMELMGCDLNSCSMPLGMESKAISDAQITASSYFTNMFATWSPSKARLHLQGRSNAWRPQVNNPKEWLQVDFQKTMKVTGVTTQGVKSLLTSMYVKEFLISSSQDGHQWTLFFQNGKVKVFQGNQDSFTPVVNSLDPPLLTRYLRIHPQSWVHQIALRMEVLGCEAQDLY

FVIII activity of normal plasma after adding ESH8 (% of its initial activity): 32.6
FVIII activity of normal plasma after adding ESH8 (% of the initial activity): 23.5
Substance: murine monoclonal anti-FVIII antibody ESH8 (American Diagnostica)
